Molecular target: eRF1 (not stated (S. cerevisiae or human protein prepared)) (UniProt P12385)
UniProt P12385, sequence (P12385 whole entry): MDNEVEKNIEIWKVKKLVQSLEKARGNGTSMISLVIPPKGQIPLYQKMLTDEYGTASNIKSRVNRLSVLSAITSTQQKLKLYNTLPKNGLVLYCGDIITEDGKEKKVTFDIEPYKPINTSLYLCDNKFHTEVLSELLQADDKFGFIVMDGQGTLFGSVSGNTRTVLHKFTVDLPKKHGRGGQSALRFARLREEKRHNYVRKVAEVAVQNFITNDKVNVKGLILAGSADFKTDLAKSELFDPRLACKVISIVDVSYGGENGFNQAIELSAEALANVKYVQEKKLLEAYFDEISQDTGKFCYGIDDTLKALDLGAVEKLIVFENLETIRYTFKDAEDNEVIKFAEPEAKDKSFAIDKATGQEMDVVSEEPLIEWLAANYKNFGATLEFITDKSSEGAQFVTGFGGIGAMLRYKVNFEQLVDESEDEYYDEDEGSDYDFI

eRF3, sequence (P05453 whole entry): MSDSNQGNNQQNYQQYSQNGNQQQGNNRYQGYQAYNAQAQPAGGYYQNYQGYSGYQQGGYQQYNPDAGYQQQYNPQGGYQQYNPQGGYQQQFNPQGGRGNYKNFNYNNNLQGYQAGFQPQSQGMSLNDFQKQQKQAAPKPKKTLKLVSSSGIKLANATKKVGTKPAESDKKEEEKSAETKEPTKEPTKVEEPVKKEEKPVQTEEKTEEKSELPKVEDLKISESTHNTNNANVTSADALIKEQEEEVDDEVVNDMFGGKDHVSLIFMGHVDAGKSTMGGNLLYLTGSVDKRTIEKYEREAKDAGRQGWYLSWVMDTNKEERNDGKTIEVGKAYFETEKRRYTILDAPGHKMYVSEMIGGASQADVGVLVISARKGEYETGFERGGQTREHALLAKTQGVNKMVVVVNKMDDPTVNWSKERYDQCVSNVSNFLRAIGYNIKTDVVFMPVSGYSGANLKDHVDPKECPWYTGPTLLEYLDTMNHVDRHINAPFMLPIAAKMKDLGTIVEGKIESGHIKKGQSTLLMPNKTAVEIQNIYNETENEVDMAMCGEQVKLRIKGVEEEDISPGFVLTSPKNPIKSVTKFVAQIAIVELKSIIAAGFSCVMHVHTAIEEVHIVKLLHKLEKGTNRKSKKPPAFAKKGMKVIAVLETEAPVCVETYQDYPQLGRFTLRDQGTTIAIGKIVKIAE

formation of RFC at constant 0.8 µM eRF3 with 0.01 to 0.4 µM eRF1 ('early experiments' of the termination assay; how it was determined is not told): > 90%
Substance: eRF3 (from UniProt P05453 1-685) (natural protein)
